# Source: the DeepSol protein solubility set
# Experiment: soluble on expression in E. coli; label from the status in PepcDB or PDB records
row,Sequence,soluble on expression in E. coli
1,MVTPLTGTHEGVSCDGCAFTAFAGNRYKCLRCSDYDLCFSCFTTKNYGDQQTIADIPIHDESHPMQLILSSVDFDLVYQGDPTRHYDERKIVSFTCPYCNITGLTERQFGTHVLSQHPEAPGYSVICPLCIGNTEMEHIQSKETENLSVHWTEIHLHTMENLFRSTEPITTRPVQRRPMLARRGNRAGVSRTAAQGRPLQDEIGAEMAALLRNMGPDSVEDIRRFTEMMTVPLLPGIRSSQRLMTSTGDRPTVVVESAVTHQDPNVQQVIRPLATIPIYPPTSDESGDETPQPAADSADESEDDNDIQELDDMQPIVEDEALKKDEFWKTLKTRISEEDVDLILETMKSTAKVKEDIDDKMPVWTQRPLKRLANAAQVTTTSDSEGDPGWLPLSFETTPIRSTGCGGYWSDKRFLRPRKMQREQSVASSNAEIMEKAEIALALIRASCLHEPVFTDPTKPDIALKEALQHLRLGEKPAKMMEYQAAEELVNMPERDPITTGEMEVEIPDFTARGYGQIVDGNIPLGVVPEADEAITNSEDEEIVGGETSGDDEDEQEDDENDSQDSSVPEEINID,not soluble
2,MVVLHVKRGDESQFLLQAPGSTELEELTAQVARVYNGRLKVHRLCSEMEELAEHGVFLHPNMQGLTDEQIEELKLKDEWGEKCVPSGGSVFTKDEIGRRNGQAPNEKMKQVLKKTVEEAKAIVSKKQVEAGVFVTMEMVKDALDQLRGAVMIVYPMGLPPYDPIRMEFENKEDLSGTQAALEVIQESEAQLWWAAKELRRTKKLSDYVGKNEKTKIIVKIQQRGQGAPAREPVISSEEHKQLMLFYHRRQEELKKLEENDDDSCLNSPWADNTALKRHFHGVKDIKWRPR,soluble
3,MVVRTWRSMQERYNLIGSKCKTCGTVYFPARSVCPECRRKGELEDYKLNGKGKVYTYSVVYAAPKDFEKQSPYVIGIVELEEGTKITSQIDCEPEEVKIGMPVEATFRKIREDGCDGVISYGYKFVPTEQ,not soluble
4,MVYVAITIVRVPGPAFSYHCPDFVRLYIEAMGYSPTIAPARIRVWRNAITEQGFVAVCAIDDSSDNPAAIGEGIVGIGYGFTGRSEHWWDQQIHRGLAEQKCPPVARPYFELAELHVSPRAQGQGIGRSLLHALIKHCGHELILLSTPEVPDEKNAAFHLYRSCGFDDLLRNFMFEGDRRPFAVLQRKAHRN,not soluble
5,MVYYEIIKDIVFTYNLQFTHLIHNDRISEVNLGGVTMRSIITQICNGVLHGQSYQSGSNDLDKGNSEIFASSLFVHLNEQGKEIIKHKDSDDKIVIGYTKDGMAFQIVVDGFYGCERQAVFSFIDNYVLPLIDNFSLDLTRYPDSKKVTESLIHTIYSLRSKHAPLAEFTMSLCVTYQKDEQLFCAGFGIGDTGIAIKRNEGTIEQLVCHTEVDGFKDAFDNYSSANIDLVIERNSVFNTKVMPGDELVGYTYVPPMLEMTEKEFEVETVDGKKINKRIVRHLNLDPGNFDDKDPLFSQLLQVVKSKQKQLVEQAKETGQIQRFGDDFTVGRLVIPDQLLINQLRIHALSIGVSDGLLSYIKNENENKGFLGIYGFFTGADKNIEKATLYKNLIAKYQNNHFISLIILSALVSDSKTPLMTQYLVGYLDFPSKALLANKITELLLKELENPDMREILGSRLATDVIEELETKIIRYIHNPAGSDIHSTLNLWTADKIKAATNSSLTI,not soluble
6,MWAFRTARIGSLLAATSVILRRCLRLGVAMAKSKFEYVRNFEVQDTCLPHCWVVVRLDGRNFHRFAEEHNFAKPNDSRALHLMTKCAQTVMEELEDIVIAYGQSDEYSFVFRKKSNWFKRRASKFMTLVASQFASSYVFYWRDYFEDQPLRYPPGFDGRVVLYPSNQTLKDYLSWRQADCHINNLYNTVFWALIQQSGLTPVQAQQRLKGTLTADKNEILFSEFHINYNNEPHMYRKGTVLVWQKVEEVRTQEVRLPAEMEGEKKAVARTRTRVVALNCDLIGDAFWKEHPEILAEEN,soluble
7,MWESKFVKEGLTFDDVLLVPAKSDVLPREVSVKTVLSESLQLNIPLISAGMDTVTEADMAIAMARQGGLGIIHKNMSIEQQAEQVDKVKRSESGVISDPFFLTPEHQVYDAEHLMGKYRISGVPVVNNLDERKLVGIITNRDMRFIQDYSIKISDVMTKEQLITAPVGTTLSEAEKILQKYKIEKLPLVDNNGVLQGLITIKDIEKVIEFPNSAKDKQGRLLVGAAVGVTADAMTRIDALVKASVDAIVLDTAHGHSQGVIDKVKEVRAKYPSLNIIAGNVATAEATKALIEAGANVVKVGIGPGSICTTRVVAGVGVPQLTAVYDCATEARKHGIPVIADGGIKYSGDMVKALAAGAHVVMLGSMFAGVAESPGETEIYQGRQFKVYRGMGSVGAMEKGSKDRYFQEGNKKLVPEGIEGRVPYKGPLADTVHQLVGGLRAGMGYCGAQDLEFLRENAQFIRMSGAGLLESHPHHVQITKEAPNYSL,not soluble
8,MWKFATRLGLESVDTIAATNPREAIAAVAAGQADYACVAIENSVDGPVTPTFDALATIDGVRIFHELDLPIAFAIMQRTGAPLRRFATHPVAYQQVKTWLAANAPAAEFVPASSNAEAARMAKENIVDFAAAPARAAEVYGLDIIADGVADVTGARTRFVLVGHADT,not soluble
9,MWNAGRETSSPGTELSENQAKKEKERLIKELQLITEERNDLRDRLRFLTERSMKNRSHFRPNPYYEDLERMEEAVMSILHNLEMENTEVHENNHKLKKEITFSR,soluble
10,MWPRNDVHMDDGSMTPEDQEPVTDNDMEYNDNGEESSYSNGSSSSYNADKLSSSRPLQHKLDLSASPSRNNDLNPRVEHLIALFKDLSSAEQMDAFTRLLQESNMTNIRQLRAIIEPHFQRDFLSCLPVELGMKILHNLTGYDLLKVAQVSKNWKLISEIDKIWKSLGVEEFKHHPDPTDRVTGAWQGTAIAAGVTIPDHIQPCDLNVHRFLKLQKFGDIFERAADKSRYLRADKIEKNWNANPIMGSAVLRGHEDHVITCMQIHDDVLVTGSDDNTLKVWCIDKGEVMYTLVGHTGGVWTSQISQCGRYIVSGSTDRTVKVWSTVDGSLLHTLQGHTSTVRCMAMAGSILVTGSRDTTLRVWDVESGRHLATLHGHHAAVRCVQFDGTTVVSGGYDFTVKIWNAHTGRCIRTLTGHNNRVYSLLFESERSIVCSGSLDTSIRVWDFTRPEGQECVALLQGHTSLTSGMQLRGNILVSCNADSHVRVWDIHEGTCVHMLSGHRSAITSLQWFGRNMVATSSDDGTVKLWDIERGALIRDLVTLDSGGNGGCIWRLCSTSTMLACAVGSRNNTEETKVILLDFDAVYP,not soluble
11,MWQAISQQLSDTLLFEYQITEKVRLSGGDISESYMINDGEQRYFVKINDREFLHKFEVEAESLHLLRETSTIFVPEVVLVGKTKNNAFIILNYLPTKPLDDPENSFKFGQQLAQLHQWGEQKEFGFDTDNYLGSTLQPNQWHKKWCMFFAEQRIGWQLQLLKEKGVTLVDIDDFIDVVKQLLANHTPEPSLLHGDLWNGNVALTAFGPICFDPACYWGDRECDIAMTELFGGFQPEFYQGYESVMPLLPGYHERKDIYNLYHILNHCNLFGGHYLEQAQLTINKIISYLEHHHHHH,soluble
12,MWRTEMRKFLVVLDDSRECLNAMRFAAMRAAHTGGGVAILSIIPPDEFNHWIGVGEVMREEARERIHAHFEVFAKWMRDKQGVEPELVIREGEAVPEIIAHVQEDPEIGVLVLGAGTDKKGPGPLVSQLSRSSGSLPIPITIVPGDLSKEKLEAIT,not soluble
13,MWYQKTLTLSAKSRGFHLVTDEILNQLADMPRVNIGLLHLLLQHTSASLTLNENCDPTVRHDMECFFLRTVPDNGNYEHDYEGADDMPSHIKSSMLGTSLVLPVHKGRIQTGTWQGIWLGEHRIHGGSRRIIATLQGELEHHHHHH,not soluble
14,MYAAKGTQAYAQIGVESAVMSASQQQLVTMLFDGVLSALVRASLFMQDNNQQGKGVSLSKAINIIENGLRVSLDEESKDELTQNLIALYSYMVRRLLQANLRNDVSAVEEVEALMRNIADAWKESLLSPSLIQDPV,soluble
15,MYDFAIIGSGVAGATLAKELRYRYKVAVIEKGKKPSYASEGKNVEINYVYGLGGSGVYSLGNAIKTEIKGYKIDKDIYKEIWEELKIKAPKDDFLNDIDKAFIELGFEKMEKFIDFDRCNKCGECARKICKAKWTPLNYLKESNANIITEFNIKAINYSNYYEILDDKGRKIKAKNLIISAGGINSPRILKKMIDDENIGKNLFIDTFVTVGGILEDSYLNKDISMLVYKKYKNFMLATHYSKLLINEIKKDYKDVKEKDIVGIMIKIKDENNGVVLDNDVKKEITKEDFKTLARGICKATKYLYKLGVDDIYTTIPRGSHPGGSLSLVVDEFEVREGLYVCDASLFKEALGVPPIVSIIALSKKFVREILLEHHHHHH,not soluble
16,MYEITATIVTYKNPDSVLLKAINSFLNTKLEVRLYIIDNSPTDYLKDISYDPRVEYIFMNSNNGFGAGHNVILRDPEKMGKYHLILNPDISFEEGTLEKLYDYMEGKLDVGNVMPKVIYPNGELQYLCKLLPTPKDWIVRMFLPIKSIKNRIDYNFEMKFADYDREMNIPYLSGCFMFLRKSVIEGIGVFDEGIFMYGEDTDLNRRIYRKYKTMYYPQVTITHHFEKGSHKSLRLLWIHVKAAIYYLNKWGWFFDKERSIINITVKQQYIRKLEHHHHHH,soluble
17,MYEKTKWKIQKMMKKGVFSGASFCFIEGEKEESNCWGLAQVKPTKEQLTSAMLFDVASLTKVVGTTTVILQLVEEGKIILDQSLQTYYPSFQDSNITIRHLLTHTADLQGYIPNRDQLNAQELKDAYNHSFHAGKAIGKKVVYTDAGTILLGFMLEEMFQQSMIEILSERVLLPLGMNESTFLPKNPLNCVPTELHEQRGLIRGATHDPKAFVLREHAGNAGLFSNVYDLTKFVRMYLNRGSYHNHQFLKKETIDLLLVNQVPAADKPRSLGWDFKYDVATQRPLLFHTGYTGTFLLIDVQQQSALIFLSNRVHPEDHRNTYIEERDQLLATYLKEKSSVSDEMTSF,not soluble
18,MYHDRRRTGFRQYETYMKQKQSADWQLDELLEELEALETQLNSSNGGDQLLLGVSGIPASSSRENVKSISTLPPPPPALSYHQTPQQPQLLHHHNNHLGYQNGIHQITSINSAASSCSSPDGDSAFGDSSSTESSNNRCRNSAFSSNDSCRDSLNTPSPTQVSPRNGELNAEEAKAQKIRQALEKMKEAKVTKIFVKFFVEDGEALQLLIDERWTVADTLKQLAEKNHIALMEDHCIVEEYPELYIKRVYEDHEKVVENIQMWVQDSPNKLYFMRRPDKYAFISRPELYLLTPKTSDHMEIPSGDQWTIDVKQKFVSEYFHREPVVPPEMEGFLYLKSDGRKSWKKHYFVLRPSGLYYAPKSKKPTTKDLTCLMNLHSNQVYTGIGWEKKYKSPTPWCISIKLTALQMKRSQFIKYICAEDEMTFKKWLVALRIAKNGAELLENYERACQIRRETLGPASSMSAASSSTAISEVPHSLSHHQRTPSVASSIQLSSHMMNNPTHPLSVNVRNQSPASFSVNSCQQSHPSRTSAKLEIQYDEQPTGTIKRAPLDVLRRVSRASTSSPTIPQEESDSDEEFPAPPPVASVMRMPPPVTPPKPCTPLTSKKAPPPPPKRSDTTKLQSASPMAPAKNDLEAALARRREKMATMECMGHHHHHHENLYFMGHHHHHHENLYFQSH,soluble
19,MYIELRTSLEMFRSDLVDLEALANASRDALDQLPFVPKGPKMDDDEAHPNPDPESALRSGRLDSLVCATASAAQSALVTCVKLIDWAYEYEPDDEDDDDNDIVPMDDIDDDDEGGGSSGANGGGSNGSGRSGPPDNGDASAAPSVTADELANARPSRGGIALDLPPKPAPVA,not soluble
